We go through one molecule from US20040146507A1.

This assay concerns the target T1, rhesus CD11a (rhesus) (UniProt H9Z8N3).
T1 sequence: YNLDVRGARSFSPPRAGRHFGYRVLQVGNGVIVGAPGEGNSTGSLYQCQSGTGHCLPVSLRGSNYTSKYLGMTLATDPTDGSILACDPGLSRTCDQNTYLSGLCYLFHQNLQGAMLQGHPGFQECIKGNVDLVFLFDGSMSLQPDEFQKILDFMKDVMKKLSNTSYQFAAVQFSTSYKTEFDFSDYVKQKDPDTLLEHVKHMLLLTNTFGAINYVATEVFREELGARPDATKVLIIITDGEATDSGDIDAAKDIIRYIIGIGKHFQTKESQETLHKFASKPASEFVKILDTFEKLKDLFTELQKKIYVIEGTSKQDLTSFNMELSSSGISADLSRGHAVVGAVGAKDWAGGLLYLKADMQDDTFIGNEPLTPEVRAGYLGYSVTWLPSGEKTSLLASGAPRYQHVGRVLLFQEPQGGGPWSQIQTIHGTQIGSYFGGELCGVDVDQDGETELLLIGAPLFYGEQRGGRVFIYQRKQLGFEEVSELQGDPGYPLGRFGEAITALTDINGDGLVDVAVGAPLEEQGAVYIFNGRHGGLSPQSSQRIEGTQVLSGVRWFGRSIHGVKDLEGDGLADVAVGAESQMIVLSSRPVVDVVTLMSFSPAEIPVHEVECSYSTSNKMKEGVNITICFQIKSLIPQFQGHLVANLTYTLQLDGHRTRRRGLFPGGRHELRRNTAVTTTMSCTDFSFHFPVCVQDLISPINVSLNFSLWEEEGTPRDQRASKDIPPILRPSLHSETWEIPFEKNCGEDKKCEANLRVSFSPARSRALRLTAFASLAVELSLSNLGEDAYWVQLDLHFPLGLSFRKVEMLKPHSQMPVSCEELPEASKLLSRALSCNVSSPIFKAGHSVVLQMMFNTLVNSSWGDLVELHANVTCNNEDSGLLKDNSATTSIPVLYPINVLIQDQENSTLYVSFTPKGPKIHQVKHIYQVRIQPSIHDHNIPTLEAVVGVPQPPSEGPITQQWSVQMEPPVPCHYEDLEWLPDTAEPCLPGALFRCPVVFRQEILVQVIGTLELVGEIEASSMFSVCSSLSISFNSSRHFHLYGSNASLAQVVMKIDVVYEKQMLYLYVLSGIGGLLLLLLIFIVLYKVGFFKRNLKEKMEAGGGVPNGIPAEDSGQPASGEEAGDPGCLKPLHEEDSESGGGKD
Kind of assay: rhesus PBL binding.

B1: HuIgG1 mutant SerL52Ala (antibody, V domains shown)
VH: EVQLVESGGGLVQPGGSLRLSCAASGYSFTGHWMNWVRQAPGKGLEWVGMIHPSDSETRYNQKFKDRFTISVDKSKNTLYLQMNSLRAEDTAVYYCARGIYFYGTTYFDYWGQGTLVTVSS
VL: DIQMTQSPSSLSASVGDRVTITCRASKTISKYLAWYQQKPGKAPKLLIYSGATLQSGVPSRFSGSGSGTDFTLTISSLQPEDFATYYCQQHNEYPLTFGQGTKVEIKR
Take B1: the Var.EC50/HuIgG1 EC50 was determined as 13.3.
